± gives the uncertainty stated by the source.

A short description of this data set: self-splicing fitness, log relative to wild type (ln ratio); higher = more splicing; Tetrahymena group I intron in knt gene, E. coli kanamycin selection, DiMSum; sequences stand for … in CUCUCU…GGAGGGAAAAGUUAUCAGGCAUGCACCUGGUAGCUAGUCUUUAAACCAAUAGAUUGCAUCGGUUUAAAAGGCAAGACCGUCAAAUUGCGGGAAAGGGGUCAACAGCCGUUCAGUACCAAGUCUCAGGGGAAACUUUGAGAUGGCCUUGCAAAGGGUAUGGUAAUAAGCUGACGGACAUGGUCCUAACCACGCAGCCAAGUCCUAAGUCAACAGAUCUUCUGUUGAUAUGGAUGCAGUUCACAGACUAAAUGUCGGUCGGGGAAGAUGUAUUCUUCUCAUAAGAUAUAGUCGGACCUCUCCUUAAUGGGAGCUAGCGGAUGAAGUGAUGCAACACUGGAGCCGCUGGGAACUAAUUUGUAUGCGAAAGUAUAUUGAUUAGUUUUGGAGUACUCGUGGUCG
The gist of the method: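 Pooled colonies went to amplicon sequencing on an Illumina HiSeq 2500 after six replicate transformations. The plates were LB agar with 100 μg/mL carbenicillin, 50 μM IPTG and 0.2% rhamnose, with or without 25 μg/mL kanamycin, incubated overnight at 37°C or 30°C. The E. coli BL21(DE3) library had all eight P1ex-region intron nucleotides randomised, the intron placed in the knt kanamycin-resistance gene on pET-22b(+). DiMSum fitness is the error-weighted combination of replicate fold changes, kanamycin against none, normalised to wild type.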

With GGCUAGCAAUAUUACGUCCA, the “self-splicing fitness (ln)” value is -1.3 ± 0.18 (30 °C) and -1.05 ± 0.2 (37 °C).
Consider AUCGAGCAAUAUUACGAUUG, for which the “self-splicing fitness (ln)” value was -4.49 ± 0.46 (30 °C) and -3.32 ± 0.26 (37 °C).
For GUAGAGCAAUAUUACGCAAU, the “self-splicing fitness (ln)” value runs as follows: (30 °C) -2.52 ± 0.11; (37 °C) -0.0736 ± 0.11.
The like results for GAAUAGCAAUAUUACGUUGA were, in that order, -2.6 ± 0.13 and -0.487 ± 0.09.
With UUUUAGCAAUAUUACGGAGC, the “self-splicing fitness (ln)” value is, setting by setting: (30 °C) -2.24 ± 0.38; (37 °C) -2.37 ± 0.49.
On to CCUAAGCAAUAUUACGCGGA, for which the “self-splicing fitness (ln)” value reads like this: (30 °C) -2.38 ± 0.19; (37 °C) -3.62 ± 0.46.
Consider CAAGAGCAAUAUUACGGUGG, for which the “self-splicing fitness (ln)” value by setting is: (30 °C) -2 ± 0.082; (37 °C) -1.58 ± 0.11.
CUGAAGCAAUAUUACGCAUU: the “self-splicing fitness (ln)” value runs as follows: (30 °C) -2.24 ± 0.12; (37 °C) -2.45 ± 0.17.
Consider AUAUAGCAAUAUUACGGGUC, for which the “self-splicing fitness (ln)” value by setting is: (30 °C) -4.55 ± 0.46; (37 °C) -2.17 ± 0.25.
As to ACCUAGCAAUAUUACGUAAA, the “self-splicing fitness (ln)” value was -2.13 ± 0.096 (30 °C) and -1.47 ± 0.12 (37 °C).
Consider GAAUAGCAAUAUUACGAUAU, for which the “self-splicing fitness (ln)” value was -1.43 ± 0.068 (30 °C) and -0.744 ± 0.085 (37 °C).
As for GCCAAGCAAUAUUACGCCAU, the “self-splicing fitness (ln)” value is, setting by setting: (30 °C) -3.22 ± 0.37; (37 °C) -3.45 ± 0.46.
In the case of AAUCAGCAAUAUUACGUGCA, the “self-splicing fitness (ln)” value was -0.181 ± 0.067 (30 °C) and 0.221 ± 0.084 (37 °C).
Regarding CACGAGCAAUAUUACGGGGA, the “self-splicing fitness (ln)” value reads like this: (30 °C) -3.15 ± 0.12; (37 °C) -2.51 ± 0.13.
For the sequence AACGAGCAAUAUUACGUUGA, the “self-splicing fitness (ln)” value by setting is: (30 °C) -3.48 ± 0.21; (37 °C) -3.32 ± 0.22.
With AUACAGCAAUAUUACGUAGA, the “self-splicing fitness (ln)” value is -2.11 ± 0.085 (30 °C) and -0.327 ± 0.076 (37 °C).
Regarding ACUCAGCAAUAUUACGGCCA, the “self-splicing fitness (ln)” value is, setting by setting: (30 °C) -1.28 ± 0.13; (37 °C) -0.0774 ± 0.16.
Take GGCCAGCAAUAUUACGUUCU: the “self-splicing fitness (ln)” value is -0.00519 ± 0.082 (30 °C) and 0.108 ± 0.089 (37 °C).
Take GACUAGCAAUAUUACGUUAG: the “self-splicing fitness (ln)” value runs as follows: (30 °C) -4.25 ± 0.23; (37 °C) -3.17 ± 0.23.
CUCCAGCAAUAUUACGUCGC: the “self-splicing fitness (ln)” value (30 °C) was -4.34 ± 0.23 and the “self-splicing fitness (ln)” value (37 °C) was -2.96 ± 0.23.
Take ACAAAGCAAUAUUACGCUGU: the “self-splicing fitness (ln)” value (30 °C) was -2.48 ± 0.14 and the “self-splicing fitness (ln)” value (37 °C) was -3.01 ± 0.27.
For AUUAAGCAAUAUUACGGACG the same measures were -1.18 ± 0.12 and -0.721 ± 0.14.
In the case of AAUGAGCAAUAUUACGAAGG, the “self-splicing fitness (ln)” value is, setting by setting: (30 °C) -2.56 ± 0.43; (37 °C) -3.54 ± 0.43.
As for CUAAAGCAAUAUUACGCGCG, the “self-splicing fitness (ln)” value by setting is: (30 °C) 0.227 ± 0.072; (37 °C) -0.176 ± 0.095.
For the sequence GUUCAGCAAUAUUACGAGUG, the “self-splicing fitness (ln)” value (30 °C) was -1.59 ± 0.18 and the “self-splicing fitness (ln)” value (37 °C) is -0.332 ± 0.14.
On to CUACAGCAAUAUUACGCGCU, for which the “self-splicing fitness (ln)” value reads like this: (30 °C) -3.59 ± 0.28; (37 °C) -1.5 ± 0.23.
For GAUUAGCAAUAUUACGGUUG, the “self-splicing fitness (ln)” value is -1.43 ± 0.12 (30 °C) and -1.02 ± 0.15 (37 °C).
Turning to AAGAAGCAAUAUUACGGCCU, the “self-splicing fitness (ln)” value is -0.278 ± 0.11 (30 °C) and -0.574 ± 0.14 (37 °C).
On to UCAGAGCAAUAUUACGCGAC, for which the “self-splicing fitness (ln)” value (30 °C) was -3.71 ± 0.42.
Turning to AGCAAGCAAUAUUACGGCUU, the “self-splicing fitness (ln)” value is, setting by setting: (30 °C) -3.17 ± 0.18; (37 °C) -0.891 ± 0.12.
For GCCUAGCAAUAUUACGGCGU, the “self-splicing fitness (ln)” value reads like this: (30 °C) -0.505 ± 0.074; (37 °C) -0.0919 ± 0.08.
For GAUUAGCAAUAUUACGUCUC the same measures were -1.24 ± 0.33 and -0.965 ± 0.32.
With GGGUAGCAAUAUUACGUGGC, the “self-splicing fitness (ln)” value (37 °C) is -2.64 ± 0.33.
For the sequence CACUAGCAAUAUUACGGGGG, the “self-splicing fitness (ln)” value was -2.43 ± 0.18 (30 °C) and -1.5 ± 0.17 (37 °C).
For CGCAAGCAAUAUUACGGAAA the same measures were -2.31 ± 0.33 and -2.5 ± 0.2.
In the case of UGCUAGCAAUAUUACGUACA, the “self-splicing fitness (ln)” value runs as follows: (30 °C) 0.0476 ± 0.1; (37 °C) 0.533 ± 0.17.
With UAAUAGCAAUAUUACGUUUA, the “self-splicing fitness (ln)” value is -1.86 ± 0.15 (30 °C) and -1.81 ± 0.12 (37 °C).
Turning to UAUGAGCAAUAUUACGAUAA, the “self-splicing fitness (ln)” value is -3.74 ± 0.33 (30 °C) and -2.74 ± 0.27 (37 °C).
